Test results: patent publication US20160200799A1

How the values were obtained:
Experiment in all cases: cell-based or functional assay
[1] = target: Influenza virus A/Brisbane/59/2007 (H1N1) (Influenza A virus A/Brisbane/59/2007 (H1N1))
[2] = target: Influenza virus A/California/7/2009pdm (H1N1pdm) (Influenza A virus A/California/7/2009pdm (H1N1pdm))
[3] = target: Influenza virus A/Indonesia/5/2005/PR8-IBCDC-RG2 (H5N1) (Influenza A virus A/Indonesia/5/2005/PR8-IBCDC-RG2 (H5N1))
[4] = target: Influenza virus A/Panama/2007/1999 (H3N2) (Influenza A virus A/Panama/2007/1999 (H3N2))
[5] = target: Influenza virus A/Suita/1/2009pdm (H1N1 2009 pandemic) (Influenza A virus A/Suita/1/2009pdm (H1N1pdm))

| Binder | HI activity [1] [µg/mL] | Neutralizing activity (%) at 100 µg/ml [1] [%] | Neutralizing activity (%) at 250 µg/ml [1] [%] | HI activity [2] [µg/mL] | Neutralizing activity (%) at 100 µg/ml [3] [%] | Neutralizing activity (%) at 250 µg/ml [3] [%] | Neutralizing activity (%) at 100 µg/ml [4] [%] | Neutralizing activity (%) at 250 µg/ml [4] [%] | Neutralizing activity (%) at 100 µg/ml [5] [%] | Neutralizing activity (%) at 250 µg/ml [5] [%] |
| --- | --- | --- | --- | --- | --- | --- | --- | --- | --- | --- |
| Group 51 representative clone F083-302, Fab-PP-type antibody (Fab, V domains shown) VH: QVQLVQSGAEVKKPGSSVKVSCEASGATFSSNAFSWVRQAPGQGPEWMGGIITMFRKAEYAQKFQGRVTITAGELGSTAYMEVRSLTFEDTAVYYCARHSGYHLIGYFDSWGQGTLVTVSS VL: QSVLTQPPSVSAAPGQKVTISCSGTTSNIGNNYVSWYQQLPGAAPKLLIYDNNKRPSGIPDRFSGSKSDTSATLGITGLQTGDEADYYCGTWVSSLSVWVFGGGTKLTVLG | > 160 | 98 | 98 | > 160 | 72.9 | 85.9 | 3.4 | -11 | 100 | 100 |
| Group 43 representative clone F081-007, Fab-PP-type antibody (Fab, V domains shown) VH: QVQLQQSGAEVKKPGSSVKVSCKASGGIFRKNAISWVRQAPGQGLEWMGGISAIFGTANYAQKFQGRVTITADESSNTVYMDLSRLRSEDTAIYYCASHPTYHFDKSGYRFDSWGQGTLVTVSS VL: QSVLTQPPSVSAAPGQKVTISCSGSSSNIGNNYVSWYQQLPGTAPKLLIYDNNKRPSGIPDRFSGSKSGTSATLGITGLQTGDEADYYCGTWDSSLSAGVFGGGTKLTVLG | > 160 | 100 | 100 | > 160 | 97.6 | 98.8 | 11.6 | 13.7 | 100 | 100 |
| Group 38 representative clone F082-338, Fab-PP-type antibody (Fab, V domains shown) VH: QVQLQESGAEVKKPGSSVKVSCKASGGPFRSHAISWVRQAAGQGLEWMGGITAVFGTANYAQKFQGRVTITADESTNIVSMELSSLRSEDTAIYYCARSLGYHTQYNGMDVWGQGTTVTVSS VL: DVVMTQSPSSVSASVGDRVTITCRASQGISSWLAWYQQKPGKAPKLLIYAASSLQSGVPSRFSGSGSGTDFTLTISSLQPEDFATYYCQQANSFPITFGQGTRLEIK | > 160 | 100 | 100 | > 160 | 67.1 | 85.3 | -2.7 | -0.7 | 100 | 97.7 |
| Group 57 representative clone F083-103, Fab-PP-type antibody (Fab, V domains shown) VH: QVQLQQSGADVKKAGSSVKVSCKASGRTFGNYAISWVRQAPGQGLEWMGGITPIFGAANYAQKFQGRVTISADLSTRMVYMDLSSLRSDDTAFYYCAGHPTYHYGSAMDYWGQGTLVTVSS VL: QSVLTQPPSVSAAPGQKVTITCSGSSSNIGNNYVSWYQQLPGTAPKLLISEGSNRPSGIPDRFSGSKSGTSATLGITGLQTGDEATYYCATWDDSLSVVLFGGGTRLTVLS | > 160 | 84.2 | 92.1 | > 160 | 30 | 61.2 | 11 | 13.7 | 60.2 | 83.8 |
| Group 59 representative clone F083-351, Fab-PP-type antibody (Fab, V domains shown) VH: QVQLVQSGADVKKAGSSVKVSCKASGRTFGNYAISWVRQAPGQGLEWMGGITPIFGAANYAQKFQGRVTISADLSTRMVYMDLSSLRSDDTAFYYCAGHPMYHYGSAMDYWGQGTLVTVSS VL: QSVLTQPPSASGTPGQRVSISCFGSRSNVGSSSVNWYQQLPGRAPKLLIQRNDQRPSGVPDRFSGSKSGTSASLAISGLQSDDESTYYCAAWDDSVKSVVFGGGTQLTVLG | > 160 | 100 | 100 | > 160 | -2.7 | 5.4 | -6.8 | -6.6 | 88.5 | 85.6 |
| Group 80 representative clone F083-373, Fab-PP-type antibody (Fab, V domains shown) VH: QVQLVQSGADVKKPGSSVRVSCKASGRTFGNYAISWVRQAPGQGLEWMGGITPIFGAANYAQKFQGRVTISADLSTTMVYMDLSSLRSDDTAFYYCAGHPTYYYGSPMDYWGQGTLVTVSS VL: EIVLTQSPSSLSASVGDRVTITCRASQSIATYLNWYQQKPGKAPNLLIYAASNLQSGVPSRFSGSGSGTDFTLTISSLQPEDFATYVCLQSYSATLTFGGGTKVEIK | > 160 | 70.4 | 74.3 | > 160 | -3.3 | 15.4 | -6.9 | -21.2 | 1.9 | 7.7 |
| Group 63 representative clone F083-336, Fab-PP-type antibody (Fab, V domains shown) VH: QVQLQQSGAEVKQPGSSVKVSCKASGGIFRSNAISWVRQAPGQGLEWMGGIVALFGTANYAQKFQGRVTITADESTSTVYMELSSLRSEDTARYYCARNSGYHISGFYLDYWGQGTLVTVSS VL: EIVLTQSPSSLSASVGDRVTITCRASQGISNYLAWYQQRPGKVPKLLIYTASTLLSGVPSRFSGGGSGTDYTLTISSLQPEDVATYYCQEYKSVPLTFGPGTKVEIK | > 160 | 100 | 100 | > 160 | 98.8 | 100 | -11 | -8.9 | 100 | 100 |
| Group 55 representative clone F083-305, Fab-PP-type antibody (Fab, V domains shown) VH: EVQLVESGAEVKKPGSSVKVSCKASGSIFSNYAISWVRQAPGQGLEWMGGIVPMFGTTRFAQKFQGRVTITADESRSTAYMELNNLISEDTAVYYCARAPLIYNWYFDLWGRGTLVTVSS VL: EIVLTQSPSFVSASVGDRVSITCRASQGISSWLAWYQQKPGKAPRLLIYGASNLQSGVPSRFSGSGSGTDYTLTINSLQPEDFATYYCQQARTFPVTFGQGTKLEIK | > 160 | 96.1 | 96.1 | > 160 | 2.4 | 22.4 | -17.1 | -6.8 | 88.3 | 69.5 |
| Group 56 representative clone F083-318, Fab-PP-type antibody (Fab, V domains shown) VH: EVQLVQSGAEVKKPGSSVKVSCQASGSIFSNYAINWVRQAPGQGLEWMGGIVPIFGTTRFAQKFQGRLTITADEPRSTAYMELNNLISEDTAVYYCARAPLIYNWYYDLWGRGTLVTVSS VL: EIVLTQSPSSLSASVGDRVTITCRASQGISNYLAWYQQKPGKVPKLLIYAASTLQSGVPSRFSGSGSGTDFTLTISSLQPEDVATYYCQKYNSAPHTFGPGTKVDIK | > 160 | 84.2 | 92.1 | > 160 | -9.5 | 1.7 | 7.5 | 7.5 | 13.5 | 27.9 |
| Group 42 representative clone F083-249, Fab-PP-type antibody (Fab, V domains shown) VH: QVQLVQSGSEVKKPGSSVKVSCKASGVTFSSYAISWVRQAPGQGLEWMGGISPMFGTTRYAQKFQGRVTITADESTRTGFMELSSLRSGDTAVYYCARSPTYYPGALDMWGQGTTVTVSS VL: DVVMTQSPSLLSASVGDRVTITCRASQAIANFVSWFQQKPGEAPKSLIHAASTLQGGVPPRFSGSGYGAVFTLTITNLQPEDFATYFCQQYNSLPFTFGPGTDVEVR | > 160 | 100 | 100 | > 160 | 96.5 | 98.2 | 15.8 | 34.2 | 100 | 97.7 |
| Group 62 representative clone F083-349, Fab-PP-type antibody (Fab, V domains shown) VH: QVQLVQSGAEVRKPGSSVKVSCKASGVIFIKFAISWVRQAPGQGLEWMGGIIPMFGTTNYAQKFQGRVTITADGSTNTVYMELSSLTSEDTAVYYCAKEEGYYYGSGPLDSWGQGTLVTVSS VL: DIVMTQSPDFLSVSLGERVTINCKSSQTVLNRSNNKNYLAWYQKKPGQPPRLLLYWSSTRESGVPDRFSGSGSETDFALTITNLQAEDLAVYFCQQFYDMPVTFGGGTKLEIK | > 160 | 92.1 | 92.1 | > 160 | 40.2 | 83.9 | 13.7 | -8.9 | 97.1 | 91.3 |
| Group 58 representative clone F083-307, Fab-PP-type antibody (Fab, V domains shown) VH: QVQLQQSGADVKKPGSSVKVSCKASGGTFGNYAISWVRQAPGQGLEWMGGITPIFGPANYAQRFQGRVTISADISTRTAYMELSSLRSEDTAIYYCARHPTYYFGSAMEYWGQGTLVTVSS VL: SYELTQPPSVSVAPGQTATITCGGDRIGTGPVHWYQQRPGRAPVLIIYGSTHRPSGIPERFSGSKSVNTATLSISGVGVGDEADYYCQVWDTSTAQPIVFGGGTKLTVLS | > 160 | 100 | 100 | > 160 | 28.8 | 31.8 | -6.8 | 11.6 | 76.6 | 54.8 |
